The target in one assay is T1, hTLR4 (human TLR4) (Homo sapiens, UniProt O00206).
T1 construct: host or cells: HEK-Blue-hTLR4 (HEK293-derived reporter line)
Briefly: SEAP activity (NF-κB activity) in HEK-Blue-hTLR4 cells. The assay is classed as cell-based. The conditions noted are these: for NF-κB activity (SEAP activity): together with LPS, FIG. 12(a); for SEAP activity, CPP sequence not linked: 12.5, 25, 50 μM, FIG. 1(b). On the procedure:
HEK-Blue™-hTLR4 cells were dispensed into 24-well plates (BD Biosciences) to a cell number of 2×10^5 cells/well, and incubation was performed overnight. The next day, the culture was removed and medium replacement was performed. Then, a portion (200 μl) of the culture was transferred to a microcentrifuge tube and heated at 65° C. for 10 minutes using a heating block (FINEPCR. Co., Seoul, Korea). Subsequently, the culture was transferred to 96-well plates (BD Biosciences), and absorbance was measured at 405 nm using the HEK-Blue™ detection kit (InvivoGen) and a microplate reader spectrophotometer (Molecular Devices Inc., Silicon Valley, Calif., USA), to analyze an expression level of SEAP (secreted alkaline phosphatase).
To this end, the inducible secreted embryonic alkaline phosphatase (SEAP) reporter gene was placed under the control of an IL-12 p40 minimal promoter (IL-12 p40 is produced by activation of NF-κB and AP-1 (activator protein 1) after stimulation of TLR4) which contains sites where DNAs of NF-κB and AP-1 bind. Then, HEK-Blue™-hTLR4 cells were treated with varying concentrations of TIP or TIP (TIP W/O CPP), to which CPP is not linked, at 12.5, 25, 50 μM, and then an average value of SEAP activity was calculated to measure TLR4 activity. The results are illustrated in FIGS. 1(a) and 1(b).
The results are illustrated in FIGS. 12(a) and 12(b).

The subject of a further assay is hPBMC cells. Briefly: NO secretion in LPS-treated hPBMC cells. The assay is classed as cell-based, human. The conditions noted are these: together with LPS, FIG. 12(b).
For another assay, the target named is T2, TLR4 (Homo sapiens, UniProt O00206).
T2 construct: endogenous in cells; host or cells: THP1
Briefly: Confocal microscopy of TIP1-FITC and TLR4 in THP1 cells. The assay is classed as cell-based. The conditions noted are these: TIP1-FITC and LPS. On the procedure:
(§1) RAW 264.7 cells and THP1 cells were dispensed into 24-well plates to a cell number of 2×10^5 cells/well, and then grown in an incubator overnight. Subsequently, combined treatment with TIP1 and LPS was performed. After 24 hours, the RAW 264.7 cells and the THP1 cells were fixed with 3.7% formaldehyde (Sigma-Aldrich Co. LLC) for 15 minutes, and immersed into 0.2% Triton X-100 (AMRESCO, Solon, Ohio, USA) for 15 minutes. Then, washing with PBS was performed three times and blocking with 2% BSA solution was performed. The blocked cells were incubated for 2 hours with TIP1-FITC (25 μM; Peptron, Inc., Daejeon, Korea), p-p65, TLR4, Myd88, TOM20 (1:1000; Santa Cruz Biotechnology Inc.), and NLRP3 (Adipogen) antibodies. Then, washing with PBS was performed three times. Subsequently, the cells were incubated with AlexaFluor […] and/or 488 and/or 546-conjugated secondary antibodies (Invitrogen, Carlsbad, Calif., USA) for 1 hour, and washed three times with PBS. Subsequently, the cells were stained at room temperature for 15 minutes using 5 μM Hoechst 33258 (Sigma-Aldrich Co.), and the number of the fluorescently stained cells was counted using a confocal laser scanning microscope (LSM-700, Carl Zeiss MicroImaging GmbH). The images were analyzed using Zen 2009 software.
(§2) The results are illustrated in FIG. 13.

The next assay has as its target T3, MyD88 (Homo sapiens, UniProt Q99836).
T3 construct: endogenous in cells; host or cells: THP1
Put plainly: Confocal microscopy of TIP1-FITC and MyD88 in THP1 cells. It is filed as cell-based. Conditions: TIP1-FITC and LPS. How it is done: as §1, §2

This note sets out measurements from patent US11352399B2, “Peptide for toll-like receptor (TLR) inhibition and pharmaceutical composition comprising same” (GENESEN CO., LTD., priority 2017, dated 2022).

Primed or numbered codes have the meaning given here. Ends that are not written are not given here. FITC′ = fluorescein isothiocyanate

T1 sequence (O00206 24-839): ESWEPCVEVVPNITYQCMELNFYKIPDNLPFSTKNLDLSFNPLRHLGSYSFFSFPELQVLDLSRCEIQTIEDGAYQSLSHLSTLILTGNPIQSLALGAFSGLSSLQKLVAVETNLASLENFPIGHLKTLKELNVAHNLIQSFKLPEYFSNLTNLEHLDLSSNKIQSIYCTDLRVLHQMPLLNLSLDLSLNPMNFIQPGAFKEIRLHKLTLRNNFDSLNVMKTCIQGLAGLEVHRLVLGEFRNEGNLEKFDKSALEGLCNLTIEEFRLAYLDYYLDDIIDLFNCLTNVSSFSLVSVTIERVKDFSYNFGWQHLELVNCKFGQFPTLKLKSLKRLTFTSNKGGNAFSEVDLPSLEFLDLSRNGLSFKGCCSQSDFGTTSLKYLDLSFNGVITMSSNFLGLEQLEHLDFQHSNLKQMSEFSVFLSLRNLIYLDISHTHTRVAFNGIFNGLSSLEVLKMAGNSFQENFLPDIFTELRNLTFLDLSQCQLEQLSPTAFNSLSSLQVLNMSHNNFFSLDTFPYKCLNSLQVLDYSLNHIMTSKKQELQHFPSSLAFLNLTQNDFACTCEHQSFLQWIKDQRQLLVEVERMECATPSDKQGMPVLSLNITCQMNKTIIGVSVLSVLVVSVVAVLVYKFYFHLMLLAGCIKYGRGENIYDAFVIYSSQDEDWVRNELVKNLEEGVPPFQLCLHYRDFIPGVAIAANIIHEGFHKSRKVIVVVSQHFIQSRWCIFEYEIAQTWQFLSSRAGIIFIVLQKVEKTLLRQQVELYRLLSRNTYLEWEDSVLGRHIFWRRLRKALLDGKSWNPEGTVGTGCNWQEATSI
T1 sequence (Q9Y6Y9 17-160 partner limits assumed): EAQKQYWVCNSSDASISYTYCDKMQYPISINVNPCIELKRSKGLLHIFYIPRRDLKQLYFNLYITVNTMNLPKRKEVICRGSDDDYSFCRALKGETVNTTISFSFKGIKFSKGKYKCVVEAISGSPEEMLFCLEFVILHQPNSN
T2 sequence (O00206 24-839): as the sequence (O00206 24-839) above
T3 sequence (Q99836 whole entry): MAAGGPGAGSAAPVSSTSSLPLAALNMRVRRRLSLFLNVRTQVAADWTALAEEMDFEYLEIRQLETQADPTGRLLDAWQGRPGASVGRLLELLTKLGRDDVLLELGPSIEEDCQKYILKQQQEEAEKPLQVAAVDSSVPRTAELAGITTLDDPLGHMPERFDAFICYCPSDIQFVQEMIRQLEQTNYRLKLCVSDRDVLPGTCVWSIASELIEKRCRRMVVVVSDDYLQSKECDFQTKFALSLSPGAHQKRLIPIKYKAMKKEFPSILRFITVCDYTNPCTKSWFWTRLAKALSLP

For RQIKIWFQNRRMKWKKSHCR (TIP1-2), in the assay with hTLR4 (human TLR4), the “NF-κB activity (SEAP activity)” value was “also decreased NF-κB activity”. Further, in the assay with hPBMC cells, the NO secretion level entry is “also inhibited NO secretion”.

As for “RQIKIWFQNRRMKWKKTIPLLS (TIP2) [used as a control]”, the “LPS-induced SEAP activity” value with hTLR4 (human TLR4) (TIP 12.5, 25, 50 μM, then LPS, FIG. 1(a)) was “unlike TIP2, TIP1 decreased LPS-induced SEAP activity”.

On to RQIKIWFQNRRMKWKKVLLI (TIP1-3), for which the “NF-κB activity (SEAP activity)” value with hTLR4 (human TLR4) was “no or insignificant changes were observed”. The NO secretion level entry in the assay on hPBMC cells is “no or insignificant changes were observed”.

As to “SHCRVLLI (Decoy peptide 1) [TIP1 W/O CPP]”, the “SEAP activity, CPP sequence not linked” value with hTLR4 (human TLR4) is “neither TIP1 (TIP1 W/O CPP) nor TIP2 (TIP2 W/O CPP) changed SEAP activity”.

For the substance “TIP1-FITC: TIP1 with fluorescein isothiocyanate (FITC) bound to the N-terminus ({FITC′}-RQIKIWFQNRRMKWKKSHCRVLLI)”, the “interaction of TIP1-FITC with TLR4” value with TLR4 is “strongly bound to each other”. In addition, the “interaction of TIP1-FITC with MyD88” value with MyD88 is reported as “formed a weak bond”.

In the case of TIPLLS (Decoy peptide 2) [TIP2 W/O CPP], the “SEAP activity, CPP sequence not linked” value in the assay with hTLR4 (human TLR4) was “neither TIP1 (TIP1 W/O CPP) nor TIP2 (TIP2 W/O CPP) changed SEAP activity”.
